Measurements published in the supplement of paper PMC11865577.

Legend:
Test in all cases: pull-down binding Z-score (relative to library population); higher = stronger binding
[1] = tested on: TO-N3-2 (biotin conjugate); conditions: RNA library: Library-2
Method in brief: (§1)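 Biotin-conjugated small molecule (100 pmol) on streptavidin beads was incubated with 1 μg of heat-folded Cy5- or Cy3-end-labelled RNA library in phosphate/NaCl/KCl buffer at 25 °C for 60 min. Following three washes, RNA was eluted with hot SDS and hybridised at 55.5 °C for 20 h to a DNA barcode microarray. The binding value is a Z-score computed from the library mean and standard deviation, after subtraction of beads without compound and averaging of barcoded replicate probes with the highest and lowest excluded.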

[2] = tested on: TO-3-N3-2 (biotin conjugate); conditions: RNA library: Library-2
Method in brief: as §1

[3] = tested on: TO-N3 (biotin conjugate); conditions: RNA library: Library-2
Method in brief: as §1

[4] = tested on: G-clamp-N3 (biotin conjugate); conditions: RNA library: Library-1 (pre-miRNA loops + repeats)
Method in brief: as §1

[5] = tested on: TO-3-N3 (biotin conjugate); conditions: RNA library: Library-2
Method in brief: as §1

## CCGGGUGCCCACAAGACUGUG [hsa-mir-3138]
[1]
  pull-down binding Z-score: 2.06
[2]
  pull-down binding Z-score: 0.469
[3]
  pull-down binding Z-score: 1.01
[4]
  pull-down binding Z-score: -0.253
[5]
  pull-down binding Z-score: 0.49

## UUUGUGGAUUUUGAAAAGGUGCAGG [hsa-mir-15a]
[1]
  pull-down binding Z-score: 0.28
[2]
  pull-down binding Z-score: 0.66
[3]
  pull-down binding Z-score: 0.277
[4]
  pull-down binding Z-score: 1.81
[5]
  pull-down binding Z-score: -0.119

## UCCUGAUCUGAUGGAAGUCAUGA [hsa-mir-7843]
[1]
  pull-down binding Z-score: 0.409
[2]
  pull-down binding Z-score: -0.16
[3]
  pull-down binding Z-score: -0.0481
[4]
  pull-down binding Z-score: -0.244
[5]
  pull-down binding Z-score: -0.312

## AGGCACAUAUGUGAACAUUGUACCA [hsa-mir-5707]
[1]
  pull-down binding Z-score: -0.108
[2]
  pull-down binding Z-score: 0.00393
[3]
  pull-down binding Z-score: 0.0876
[4]
  pull-down binding Z-score: -0.48
[5]
  pull-down binding Z-score: 0.023

## AGAAUUACUUAUCUGAGCCAAAGUAAUUCA [hsa-mir-1297]
[1]
  pull-down binding Z-score: -0.336
[2]
  pull-down binding Z-score: 0.225
[3]
  pull-down binding Z-score: 0.386
[4]
  pull-down binding Z-score: -0.86
[5]
  pull-down binding Z-score: 0.332

## UUCUUUUUUCUGAAAUUCUUCAGGAAGGA [hsa-mir-3167]
[1]
  pull-down binding Z-score: -0.017
[2]
  pull-down binding Z-score: 0.823
[3]
  pull-down binding Z-score: 0.0883
[4]
  pull-down binding Z-score: -0.0544
[5]
  pull-down binding Z-score: 0.368

## AGCUGGGUGGAGGCAGAGCU [hsa-mir-4291]
[1]
  pull-down binding Z-score: 1.4
[2]
  pull-down binding Z-score: 1.23
[3]
  pull-down binding Z-score: 2.34
[4]
  pull-down binding Z-score: 1.95
[5]
  pull-down binding Z-score: 2.46

## GAAGCCGCUCCCACCUGACCCUCACGGCCUC [hsa-mir-3605]
[1]
  pull-down binding Z-score: 1.46
[2]
  pull-down binding Z-score: 0.468
[3]
  pull-down binding Z-score: 1.33
[4]
  pull-down binding Z-score: -0.691
[5]
  pull-down binding Z-score: 1.3

## UGCUGGUGCUAGAGAGGAAAGCA [hsa-mir-4748]
[1]
  pull-down binding Z-score: 2.22
[2]
  pull-down binding Z-score: 0.315
[3]
  pull-down binding Z-score: 0.985
[4]
  pull-down binding Z-score: 1
[5]
  pull-down binding Z-score: 0.426

## UGCUUCCACAUAGCAGCA [hsa-mir-4752]
[1]
  pull-down binding Z-score: -0.597
[2]
  pull-down binding Z-score: -0.24
[3]
  pull-down binding Z-score: -0.62
[4]
  pull-down binding Z-score: -0.248
[5]
  pull-down binding Z-score: -0.423

## CGAGACACAGAAACAGACACCUGCCCUCGA [hsa-mir-151b]
[1]
  pull-down binding Z-score: 1.69
[2]
  pull-down binding Z-score: 0.464
[3]
  pull-down binding Z-score: 1.21
[4]
  pull-down binding Z-score: -2.29
[5]
  pull-down binding Z-score: 0.442

## ACAGCGCCACGGAAGAGGACGCA [hsa-mir-941-4_941-5_941-2_941-3_941-1]
[1]
  pull-down binding Z-score: 0.874
[2]
  pull-down binding Z-score: -0.211
[3]
  pull-down binding Z-score: 0.495
[4]
  pull-down binding Z-score: -0.758
[5]
  pull-down binding Z-score: 0.0968

## CGGUGGUCCCUCCCG [hsa-mir-3687-1_3687-2]
[1]
  pull-down binding Z-score: 0.832
[2]
  pull-down binding Z-score: -0.108
[3]
  pull-down binding Z-score: 0.14
[4]
  pull-down binding Z-score: -0.273
[5]
  pull-down binding Z-score: 0.0703

## AGACAGCCUGAGUUGGAGGCUCAUCUUCACUUCUUGCUGUGU [hsa-mir-3168]
[1]
  pull-down binding Z-score: 0.168
[2]
  pull-down binding Z-score: -0.221
[3]
  pull-down binding Z-score: 0.262
[4]
  pull-down binding Z-score: -0.917
[5]
  pull-down binding Z-score: 0.0963

## UAAUCACAGGCCACAUUUCUGAAUA [hsa-mir-1295b]
[1]
  pull-down binding Z-score: -0.437
[2]
  pull-down binding Z-score: -0.391
[3]
  pull-down binding Z-score: -0.716
[4]
  pull-down binding Z-score: -1.08
[5]
  pull-down binding Z-score: -0.745

## GAGUCCUAUUUAUUUUUAGGAUAUUAGGAA [hsa-mir-5692c-2]
[1]
  pull-down binding Z-score: -0.62
[2]
  pull-down binding Z-score: -0.148
[3]
  pull-down binding Z-score: -0.394
[4]
  pull-down binding Z-score: -0.397
[5]
  pull-down binding Z-score: -0.421

## GGUAUGGAUUCUGUUGUUUUGGCAACAUUCU [hsa-mir-8088]
[1]
  pull-down binding Z-score: -0.244
[2]
  pull-down binding Z-score: 0.124
[3]
  pull-down binding Z-score: -0.328
[4]
  pull-down binding Z-score: 0.269
[5]
  pull-down binding Z-score: -0.382

## UUUGCUAUUACUUUUAAUGGUAAA [hsa-mir-548aj-2]
[1]
  pull-down binding Z-score: -1.19
[2]
  pull-down binding Z-score: -0.502
[3]
  pull-down binding Z-score: -0.932
[4]
  pull-down binding Z-score: 1.61
[5]
  pull-down binding Z-score: -0.666

## CAUUAACGUGGACCAGACAAUAUUAAUG [hsa-mir-4491]
[1]
  pull-down binding Z-score: -0.0295
[2]
  pull-down binding Z-score: -0.12
[3]
  pull-down binding Z-score: -0.0907
[4]
  pull-down binding Z-score: -1.14
[5]
  pull-down binding Z-score: -0.339

## UCCACAAGGAGGGGAUGACCCUUGUGGG [hsa-mir-4437]
[1]
  pull-down binding Z-score: 1.37
[2]
  pull-down binding Z-score: 3.06
[3]
  pull-down binding Z-score: 3.14
[4]
  pull-down binding Z-score: -0.125
[5]
  pull-down binding Z-score: 4.12

## CUUCAGCCCCAGGAAGCCUUGGUCGGGGGCAGGAG [hsa-mir-647]
[1]
  pull-down binding Z-score: 0.849
[2]
  pull-down binding Z-score: -0.171
[3]
  pull-down binding Z-score: 0.594
[4]
  pull-down binding Z-score: 0.744
[5]
  pull-down binding Z-score: 0.309

## UUUACAUGCUACAGUCAAGAUGCGAA [hsa-mir-15b]
[1]
  pull-down binding Z-score: -0.147
[2]
  pull-down binding Z-score: 0.0265
[3]
  pull-down binding Z-score: 0.275
[4]
  pull-down binding Z-score: -0.982
[5]
  pull-down binding Z-score: 0.288

## GCUGCACUGUCUCCGUCUGCGG [hsa-mir-4519]
[1]
  pull-down binding Z-score: 1.43
[2]
  pull-down binding Z-score: 0.0588
[3]
  pull-down binding Z-score: 0.595
[4]
  pull-down binding Z-score: -0.081
[5]
  pull-down binding Z-score: -0.24

## CCUUCUCCUCUUUGCAGUGAUAAAGGAGG [hsa-mir-4460]
[1]
  pull-down binding Z-score: -0.549
[2]
  pull-down binding Z-score: -0.351
[3]
  pull-down binding Z-score: -0.61
[4]
  pull-down binding Z-score: -0.412
[5]
  pull-down binding Z-score: -0.304

## AGAUCCCCUGUUAGAGACGGGCC [hsa-mir-6840]
[1]
  pull-down binding Z-score: 0.991
[2]
  pull-down binding Z-score: 0.351
[3]
  pull-down binding Z-score: 0.562
[4]
  pull-down binding Z-score: -1.25
[5]
  pull-down binding Z-score: 0.114

## UUUUGCUAUUACUUUUAAAGGCAAAA [hsa-mir-548e]
[1]
  pull-down binding Z-score: -0.684
[2]
  pull-down binding Z-score: 0.21
[3]
  pull-down binding Z-score: -0.0747
[4]
  pull-down binding Z-score: -0.666
[5]
  pull-down binding Z-score: 0.431

## CUGGGAAGAGACCAUGAACAGGUUAGUCCAG [hsa-mir-4327]
[1]
  pull-down binding Z-score: -0.495
[2]
  pull-down binding Z-score: -0.286
[3]
  pull-down binding Z-score: 0.536
[4]
  pull-down binding Z-score: -0.176
[5]
  pull-down binding Z-score: 0.385

## CUUUCUGUUGUCUGAGAGAAAAGAAAG [hsa-mir-520a]
[1]
  pull-down binding Z-score: -0.553
[2]
  pull-down binding Z-score: -0.385
[3]
  pull-down binding Z-score: -0.74
[4]
  pull-down binding Z-score: 0.6
[5]
  pull-down binding Z-score: -0.684

## CACGAGAUACCAGUGUGCACUUGUG [hsa-mir-542]
[1]
  pull-down binding Z-score: 0.103
[2]
  pull-down binding Z-score: -0.425
[3]
  pull-down binding Z-score: -0.441
[4]
  pull-down binding Z-score: -0.858
[5]
  pull-down binding Z-score: -0.51

## UAGGUGGUCGAAGUCAUCCACA [hsa-mir-7153]
[1]
  pull-down binding Z-score: 0.498
[2]
  pull-down binding Z-score: 0.264
[3]
  pull-down binding Z-score: 0.131
[4]
  pull-down binding Z-score: -0.765
[5]
  pull-down binding Z-score: -0.108

## GUGAGGCAGGGAGCUGAGCUCAC [hsa-mir-3622a]
[1]
  pull-down binding Z-score: 1.06
[2]
  pull-down binding Z-score: 0.142
[3]
  pull-down binding Z-score: 0.698
[4]
  pull-down binding Z-score: -0.0355
[5]
  pull-down binding Z-score: 0.401

## GACCCCCAUGCACCCCUGUGGGCCCCUGGCAUC [hsa-mir-1257]
[1]
  pull-down binding Z-score: 1.21
[2]
  pull-down binding Z-score: -0.0626
[3]
  pull-down binding Z-score: 0.727
[4]
  pull-down binding Z-score: -1.71
[5]
  pull-down binding Z-score: 0.219

## CCCUGCACUCAGUUUGCACAGGG [hsa-mir-4511]
[1]
  pull-down binding Z-score: 0.0492
[2]
  pull-down binding Z-score: -0.184
[3]
  pull-down binding Z-score: -0.122
[4]
  pull-down binding Z-score: 0.204
[5]
  pull-down binding Z-score: -0.159

## CUGGUGUUCUCACGCAAAGUGGCCAGGGUGUGGGAGACUAGA [hsa-mir-7161]
[1]
  pull-down binding Z-score: 1.34
[2]
  pull-down binding Z-score: 0.556
[3]
  pull-down binding Z-score: 1.14
[4]
  pull-down binding Z-score: 2.32
[5]
  pull-down binding Z-score: 0.688

## CGGGCCCCUCCCCUCAAUGGGCCCG [hsa-mir-5685]
[1]
  pull-down binding Z-score: -0.886
[2]
  pull-down binding Z-score: -0.162
[3]
  pull-down binding Z-score: -0.493
[4]
  pull-down binding Z-score: 0.108
[5]
  pull-down binding Z-score: -0.255

## CUCAAGUCCUCUAUUUCUUUGAA [hsa-mir-7978]
[1]
  pull-down binding Z-score: 0.0517
[2]
  pull-down binding Z-score: -0.54
[3]
  pull-down binding Z-score: -0.484
[4]
  pull-down binding Z-score: -1.16
[5]
  pull-down binding Z-score: -0.712

## GGCGCUGUCUUGAGACAUUCGCGCAGUGCA [hsa-mir-3177]
[1]
  pull-down binding Z-score: 2.23
[2]
  pull-down binding Z-score: -0.209
[3]
  pull-down binding Z-score: 0.646
[4]
  pull-down binding Z-score: -0.296
[5]
  pull-down binding Z-score: -0.111
